# Assay results published in the nanobody polyreactivity screen of Harvey et al. (2022).
# Experiment: yeast display, Sf9 membrane polyspecificity reagent, FACS + sequencing; frameworks hold sequencing errors
# How it was run: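 Galactose-induced (36–48 hours) yeast carrying a synthetic nanobody display library were exposed to 10% biotinylated, detergent-solubilized Sf9 membrane reagent at 4 °C for 1 hour. FACS followed streptavidin microbead enrichment, using low and high (top ~1%) gates for expression (anti-HA) and reagent binding (streptavidin). Colony PCR, MiSeq 2 × 250 sequencing and CDR-length filtering followed. Labels for polyreactivity reflect the gate of origin.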
row,Sequence,polyreactivity (PSR sort gate)
1,QVQLVESGGGLVQAGGSLRLSCAASGSILGDYAMGWYRQAPGKEREFVAAIDGSDGSTYYADSVKGRFTISRDNAKNTVYLQMNSLKPEDTAVYYCNVVRQGKREFDYWGQGTQVTVSS,low polyreactivity
2,QVQLVESGGGLVQAGGSLRLSCAASGSILGLYAMGWYRQAPEKERELVAGISSGGNTNYADSVKGRFTISRDNAKNTVYLQMNSLKPEDTAVYYSYDRIYRHYSTYSWTRYDYWGEGTQVTVSS,high polyreactivity
3,QVQLVESGGGLVQAGGSLRLSCAASGSILGNAMGWYRQAPGKERELVAAISRNGDSTYYADSVKGRFTISRDNAKNTVYLQMNSLKPEDTAVYYCNAQWFFYGYIAGDYWGQGTQVTVSS,high polyreactivity
4,QVQLVESGGGLVQAGGSLRLSCAASGSILGNYAMGWYRQAPGKEREVVAAISSSGRTSYADSVKGRFTISRDNAKNTVYLQMNSLKPEDTAVYYCNASNYIVLINDPDAAPWLYDYWGQGTQVTVSS,low polyreactivity
5,QVQLVESGGGLVQAGGSLRLSCAASGSILGTYAMGWYRQAPGKERELVAAISSSGRTSYADSVKGRFTISRDNAKNTVYLQMNSLKPEDTAVYYCNASNYIFLINDPDAAPWLYDYWGQGTQVTVSS,low polyreactivity
6,QVQLVESGGGLVQAGGSLRLSCAASGSILGYYAMGWYRHAPRKERELVASITGNGGSTYYADSVKGRFTISRDNAKNTVYLQMISLKPEDTAVYYCAKRVGPYKLGEYDYWGQGTQVTVSS,high polyreactivity
7,QVQLVESGGGLVQAGGSLRLSCAASGSILGYYAMGWYRQAPGKERELVAAITASGGSTYYADSVKGRFTISRDNAKNTVYLQMNSLKPEDTAVYYCAAQYYATYGYWGQGTQVTVSS,low polyreactivity
8,QVQLVESGGGLVQAGGSLRLSCAASGSILGYYGMGWYRHAPGKERELVAAISSSCNTNYADSVKGRFTISRDNAKNTVYLQMMSLKPEDTAVYYCAASFQYVAYYLYDYWGQGTQVTVSS,low polyreactivity
9,QVQLVESGGGLVQAGGSLRLSCAASGSILIWNTMGWYRQAPGKERELVAAISISGGSTYYADSVKGRFTISRDNAKNTVYLQVNSLKPEDTAVYYCAAEVAYYYYSWGTSGYWGQGTQVTVSS,low polyreactivity
10,QVQLVESGGGLVQAGGSLRLSCAASGSILIYNAMAWYRQAPGKEMQLVAGISRRGASTYYADSVKGRFTISRDMAKNTVYLPMNSLKPEDTAVYYCAALGKYIVAWSGDYWGQGTQVNVSS,low polyreactivity
11,QVQLVESGGGLVQAGGSLRLSCAASGSILKGYALGWYRQAPGKERELVAAITSSGGRTYYADSVKGRFTISRDNAKNTVYLQMNSLKPEDTAVYYCNALGGQWARYDYWGQGTQVTVSS,high polyreactivity
12,QVQLVESGGGLVQAGGSLRLSCAASGSILLAYVMGWYRPAPGKERELVAAISSGDDTKYADSVKGRFTISRDNAMNTVYLQMNSLKPEDTAVYYCNAYTLDYPYHRFGYWGQGTQVTVSS,low polyreactivity
13,QVQLVESGGGLVQAGGSLRLSCAASGSILLVYAMGWYRQAPGKERELVATITWTDGSTYYADSVKGRFTISRDNAKNTVYLQMNSLKPEDTAVYYCNAGASVNSPLVAEYYYWGQGTQVTVSS,low polyreactivity
14,QVQLVESGGGLVQAGGSLRLSCAASGSILLYYSMGWYIQAPGKERELVARISITRDSTYYADSVKGRFTISRDNAKNTVYLQMYSLNPEDTAVYFCAADPVLHYYPSYYTGALDYYWGQGTQVTVSS,low polyreactivity
15,QVQLVESGGGLVQAGGSLRLSCAASGSILNNYAMGWYRQAPGKERELVAAISSSGGTNYADSVKGRFTISRDNAKYTVYLQMNSLKPEDTAVYYCNADVLDGGYDYWGQGTQVTVSS,low polyreactivity
16,QVQLVESGGGLVQAGGSLRLSCAASGSILPLYAMGWYRQAPGKERELVATISNAGSTTYADSVKGRFTISRDNAKNTVYLQMNSLKPEDTAVYYCNAESEWGWVYVGYDYWGQGTQVTVSS,low polyreactivity
17,QVQLVESGGGLVQAGGSLRLSCAASGSILPTNAMGWYRQAPGKERELGASITRSGGSTYYADSVKGRFTISRDNAKNTVYLQMNSLKPEDTAVYYCNARGFTRYTVGRNYWGQGTQVTVSS,high polyreactivity
18,QVQLVESGGGLVQAGGSLRLSCAASGSILQDYTMGWYRQAPGKERELVAAITWNGGSTYYADSVKGRFTISRDNEKNTVYLHMTSLKPEHTAVYYCAAYCRVVPSFYYWGQGTQVTVSS,low polyreactivity
19,QVQLVESGGGLVQAGGSLRLSCAASGSILRDYAMGWYRQAPGKERELVAAITTSGAITYYADSVKGRFTISRDNAKNTVYLQMNSLKTEDTAVYYCNAKYVRWYGKYNYWGQGTQVTVSS,high polyreactivity
20,QVQLVESGGGLVQAGGSLRLSCAASGSILRFNSMGWYRQAPGKERELVATITKGGGRTNYADSVKGRFTISRDNAKKTVYLQMNSLKPQDTSVYYCAEKFIYARYGTFQTDYKIYDYWGQGTQVTVSA,high polyreactivity

row,Sequence,polyreactivity (PSR sort gate)
1,QVQLVESGGGLVQAGGSLRLSCAASGSILRIYAMGWYSQAPGKEMELVARITWSGGRTYYADSVKGRFTISRDNAKNTVYLQMNSLKPEDTAVYDCNADLQRWGWEYDYWGQGTQVTVSS,high polyreactivity
2,QVQLVESGGGLVQAGGSLRLSCAASGSILRLYAMGWYRQAPGNERDLVAAITYRGGRTDYADSVKGRFTISRDTAKNTVYLQLNSLKPEDTAVFYCAAGYLPSPRYSTSYLYYYWGQGTQVTVSS,high polyreactivity
3,QVQLVESGGGLVQAGGSLRLSCAASGSILRYNAMGWYSQARAKEREWVASISRGGGTNYAYSVKGRFTISRDNAKNTVYLQINSLKQEDTAVYYCAALTLRVDYDSQWYSLVDYWGQGTEVTVSS,low polyreactivity
4,QVQLVESGGGLVQAGGSLRLSCAASGSILSKNAMGWYRQAPGKERELVAAITWSGGSTYYADSVKGRFTISRDNAKNTVYLQMNSLKPEDTAVYYCAADLDWSPHFGLPYDYWGQGTQVTVSS,low polyreactivity
5,QVQLVESGGGLVQAGGSLRLSCAASGSILSTNDMGWYRQAPGKERELVAGISSGGSTNYADSVKGRFTISRDNAKNTVYLQMNSQKPEDTAVYYCATDVDKDPAEMDYWGQGTQVTVSS,low polyreactivity
6,QVQLVESGGGLVQAGGSLRLSCAASGSILSTYAKGWYRQAPGKERELVASISSNAGSTYYADSVKGRFTISRDNAKNTVYLQMNSLKPEDTAVYYCNKVYGGGTYDYWGQGTQVTVSS,low polyreactivity
7,QVQLVESGGGLVQAGGSLRLSCAASGSILSTYAMGWYRQAPGKERELVASISSNAGSTYYADSVKGRFTISRDNAKNTVYLQMNSLKPEDTAVYYCNKDGKYHRVLYDYWGQGTQVTVSS,low polyreactivity
8,QVQLVESGGGLVQAGGSLRLSCAASGSILSYYAMGWYRQAPGKERELVAAISKSGGRTYYADSVKGRFTISRDNAKNTVYLQMNSLKPEETAVYYCAAEIVVFYSEGQRNTFYYWGQGTQVTVSS,high polyreactivity
9,QVQLVESGGGLVQAGGSLRLSCAASGSILSYYAMGWYRQAPGKERELVAAISKTGGRTYYADSVKGRFTISRDNAKNTVYLQMNSLKPEDTAVYYCAAVDTIGRYDYWGQGTQVTVSS,high polyreactivity
10,QVQLVESGGGLVQAGGSLRLSCAASGSILTAYAMGWYRQAPGKERELVAASNFSGDNTYYADSEKGRFTISRDNAKNTVYLQMNSLKPEDTAVYYCNADGRYAYVWYDYWGQGTQVTVSS,low polyreactivity
11,QVQLVESGGGLVQAGGSLRLSCAASGSILVAYAMGWYRQAPGKERELVAAISSVGNTYYADSVKGRFTISRDNAKNTVYLQMNSLIPEDTAVYYCNAVYRVWYAEWSTVGSPHDYWGQGTQVTVSS,low polyreactivity
12,QVQLVESGGGLVQAGGSLRLSCAASGSILVAYAMGWYRQAPGKERELVAAITQGGGSTYYADSVKGRFTISRDNAKNTVYLQMNSLKPEDTAVYYCNVGANVYLLYFPSRGGVYDYGYWGKGTQVTVSS,low polyreactivity
13,QVQLVESGGGLVQAGGSLRLSCAASGSILVGNAMGWYRQAPGKERELVAAISKSGSSTHYADSVKGRFTISRDNAKNTVYLQMNSLKPEDTAVYYCNAVGRVYRAKYDYWGQGTQVTVSS,high polyreactivity
14,QVQLVESGGGLVQAGGSLRLSCAASGSILYFYAMGWYRQAPGKEREFVAAISRSGGSTRYADSVKGRFTISRDNAKNTVYLQMNSLKPEDTAVYYCAATSRSYNDYDYWGQGTQVTVSS,high polyreactivity
15,QVQLVESGGGLVQAGGSLRLSCAASGSILYGNAMGWYRQAPGKERELVAAITTSGGRTYYADSVKGRFTISRDNAKNTVYLQLTSLKPEDTAVYYCAAASPTPVNWSGRDYYYWGQGTQVTVSS,high polyreactivity
16,QVQLVESGGGLVQAGGSLRLSCAASGSILYINAMGWYRQAPGKERELVAAITYSGGSTYYADSVKGRFTISRDNAKNTVYLQMNSLKPEDTAVYYWAADAVVAGRYDGHDYWGQGTQVTVSS,low polyreactivity
17,QVQLVESGGGLVQAGGSLRLSCAASGSILYRYAMGWYRQAPGKERELVAAITRSGGSTYYADSVKGRFTISRDNAKNTVYLQMNSLKPEDTAVYYCARQRKVSAHSIEMDYWGQGTQVTVSS,low polyreactivity
18,QVQLVESGGGLVQAGGSLRLSCAASGSILYRYAMGWYRQAPGKERELVAAITRSGGSTYYADSVKGRFTITRDNAKNTVYFQMNSLKPEDTAGYYCARQRKVSAHSIEMDYWGQGTQVTVSS,low polyreactivity
19,QVQLVESGGGLVQAGGSLRLSCAASGSILYTNAMGWYRQAPGKERELVAAITTSGASTYYADSVKGRFTISRDNAKNTVYLQMNSLKPEDTAVYYCAAPSRYRYYWGNYWGQGTQVTVSS,high polyreactivity
20,QVQLVESGGGLVQAGGSLRLSCAASGSILYVYAMGWYRQAPGKERELVAAISNRDGSTYYADSVKGRFTISRDNAKNTVYLQMNSLKPEDTAVYYCNADGYGDYSFLKYRFEYDYWGQGTQVTVSS,low polyreactivity
